The chains are these.
B1: nanobody 8F09 (VHH)
VHH: EVQLVESGGGLVQAGGSLRLSCEASGRYVMGWFRQAPGKEREFVAVISRSGGSTNYADSVKGRFSVSRDSAKNTVYLQMNDLKPEDTAVYYCAASNRYGTNVLVTTALYDYWGQGTQVTVSS
notes: From a llama immunised with rhRON; found by conventional screening and by NGS; source: E. coli, crude periplasmic extract; E. coli, purified; not shown: FLAG3, C-terminal, kept
B2: nanobody 5C06 (VHH)
VHH: EVQLVESGGGLVQPGGSLRLSCAASGFTLDYYAIGWFRQAPGKEREGVSCISSSDGSTYYADSVKGRFTISRDNAKNTVYLQMNSLKPEDTAVYYCATDLKRRCRDYARPQRGNDYWGQGTQVTVSS
notes: as for B1
B3: nanobody 8A12 (VHH)
VHH: EVQLVESGGGLVQAGGSLRVSCAASGLTFSRYNMGWFRQAPGKERDFVAAISSSDGSILYENSVKGRFTISRDNAENTVYLQMNSLEPEDTGVYYCAGSIVMSTLARKYDYWGQGTLVTVSS
notes: as for B1
B4: nanobody 8G11 (VHH)
VHH: EVQLVESGGGLVQAGGSLRLSCAASGGIFDNYAMGWIRQAPGKEREFVAGIRWSESSTYYAASVKGRFTISRDNAKNTVYLQMNSLKPEDTAVYSCAAWFWISSTWSYFSENEPNYRGPGTLVTVSS
notes: as for B1
B5: nanobody 2C06 (VHH)
VHH: EVQLVESGGGLVQTGGSLRLSCARSGPTFSDYAMAWFRQARGKEREFVASITWIGGSTYYADSVKGRFTISRDSAKDTMYLQMNTLKPEDTADYYCAIARLGTYYGSYIRAYFNRGRYEYWGQGTQVTVSS
notes: as for B1
B6: nanobody 11F05 (VHH)
VHH: EVQLVESGGGSVQAGGSLRLSCAASGRYRMGWFRQAPGKEREFVAVISASGGSTYYADSVKGRFTIARDNAKTMVYLQMNSLKPEDTAVYYCAAKVNYYGDYDLAQNYDYWGQGTQVTVSS
notes: as for B1
B7: nanobody NGS00003 (VHH)
VHH: EVQLVESGGGLVQPGGSLRLSCAASGFAFSRYWMYWVRQAPGKGLEWVSAISSSGSSTDYVDSVKGRFTVSRDNAKNTLYLQMNGLKSEDTAIYYCAKDTRQFIRSNYDNGGQGTLVTVSS
notes: majority-rule consensus of an NGS cluster; One of the 28 randomly selected NGS clusters; source: E. coli, crude periplasmic extract (synthetic DNA); not shown: FLAG3, C-terminal, kept
B8: nanobody NGS00027 (VHH)
VHH: EVQLVESGGGLVQVGASLRLSCRASGGTFDDYAMGWFRQRPGEEREFVAVISWNGAMTYYLNHIKGRFTISRDNAKNTAYLQMNNLEPGDTAVYYCAAERTLGWGVNPEAYASWGQGTLVTVSS
notes: as for B7
B9: nanobody NGS00020 (VHH)
VHH: EVQLVESGGALVQAGDSLRVSCVASGRTFSRYAMGWFRQAPGKQREFVAAISWDGDSTSYANSLKGRFTISRDNAKNTGYLYMNSLIPEDTAVYYCAADRGRTTAWTYWGEGTLVTVSS
notes: as for B7
B10: nanobody NGS00009 (VHH)
VHH: EVQLVESGGGLVQAGDSLRLSCAASGRTFSTYALGWFRQAPGKEREFVAVISGRGGTTYYAGSVKGRLTISRDNAKNTVYLQMNSLKPEDTAVYYCAAGSDFGAVVDNRPDYWGQGTLVTVSS
notes: as for B7

A value given as a limit tells only on which side of the number the result lay.

T2 sequence (Q04912 25-957): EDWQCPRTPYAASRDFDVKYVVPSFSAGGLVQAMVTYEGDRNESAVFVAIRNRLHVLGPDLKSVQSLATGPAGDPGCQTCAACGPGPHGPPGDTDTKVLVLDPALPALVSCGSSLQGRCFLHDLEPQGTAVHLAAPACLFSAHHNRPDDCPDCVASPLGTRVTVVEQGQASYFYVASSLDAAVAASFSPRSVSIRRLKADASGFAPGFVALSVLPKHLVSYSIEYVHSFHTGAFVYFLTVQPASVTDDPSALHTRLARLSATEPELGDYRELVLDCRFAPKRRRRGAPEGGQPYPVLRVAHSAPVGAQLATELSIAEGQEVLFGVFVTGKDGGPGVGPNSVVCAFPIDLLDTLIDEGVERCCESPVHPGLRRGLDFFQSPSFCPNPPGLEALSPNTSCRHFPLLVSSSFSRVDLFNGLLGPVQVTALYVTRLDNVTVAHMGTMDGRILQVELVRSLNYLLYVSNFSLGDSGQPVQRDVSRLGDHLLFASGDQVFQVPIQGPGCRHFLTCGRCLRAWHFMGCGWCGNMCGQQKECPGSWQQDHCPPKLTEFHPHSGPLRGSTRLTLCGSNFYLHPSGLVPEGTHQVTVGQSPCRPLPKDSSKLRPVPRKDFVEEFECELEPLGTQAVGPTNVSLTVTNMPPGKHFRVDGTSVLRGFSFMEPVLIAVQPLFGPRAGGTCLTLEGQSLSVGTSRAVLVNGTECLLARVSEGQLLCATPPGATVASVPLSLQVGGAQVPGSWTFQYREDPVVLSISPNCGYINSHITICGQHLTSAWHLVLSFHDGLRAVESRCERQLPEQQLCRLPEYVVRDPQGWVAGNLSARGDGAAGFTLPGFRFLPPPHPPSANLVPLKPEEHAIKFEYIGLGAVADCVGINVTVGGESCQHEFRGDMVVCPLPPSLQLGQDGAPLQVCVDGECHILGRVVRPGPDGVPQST

The first assay deals with T1, RON endogenously expressed on T-47D human breast cancer cells (Homo sapiens (T-47D cell line), UniProt Q04912). Description: cell-based or functional assay.
T1 sequence (Q04912 25-1400): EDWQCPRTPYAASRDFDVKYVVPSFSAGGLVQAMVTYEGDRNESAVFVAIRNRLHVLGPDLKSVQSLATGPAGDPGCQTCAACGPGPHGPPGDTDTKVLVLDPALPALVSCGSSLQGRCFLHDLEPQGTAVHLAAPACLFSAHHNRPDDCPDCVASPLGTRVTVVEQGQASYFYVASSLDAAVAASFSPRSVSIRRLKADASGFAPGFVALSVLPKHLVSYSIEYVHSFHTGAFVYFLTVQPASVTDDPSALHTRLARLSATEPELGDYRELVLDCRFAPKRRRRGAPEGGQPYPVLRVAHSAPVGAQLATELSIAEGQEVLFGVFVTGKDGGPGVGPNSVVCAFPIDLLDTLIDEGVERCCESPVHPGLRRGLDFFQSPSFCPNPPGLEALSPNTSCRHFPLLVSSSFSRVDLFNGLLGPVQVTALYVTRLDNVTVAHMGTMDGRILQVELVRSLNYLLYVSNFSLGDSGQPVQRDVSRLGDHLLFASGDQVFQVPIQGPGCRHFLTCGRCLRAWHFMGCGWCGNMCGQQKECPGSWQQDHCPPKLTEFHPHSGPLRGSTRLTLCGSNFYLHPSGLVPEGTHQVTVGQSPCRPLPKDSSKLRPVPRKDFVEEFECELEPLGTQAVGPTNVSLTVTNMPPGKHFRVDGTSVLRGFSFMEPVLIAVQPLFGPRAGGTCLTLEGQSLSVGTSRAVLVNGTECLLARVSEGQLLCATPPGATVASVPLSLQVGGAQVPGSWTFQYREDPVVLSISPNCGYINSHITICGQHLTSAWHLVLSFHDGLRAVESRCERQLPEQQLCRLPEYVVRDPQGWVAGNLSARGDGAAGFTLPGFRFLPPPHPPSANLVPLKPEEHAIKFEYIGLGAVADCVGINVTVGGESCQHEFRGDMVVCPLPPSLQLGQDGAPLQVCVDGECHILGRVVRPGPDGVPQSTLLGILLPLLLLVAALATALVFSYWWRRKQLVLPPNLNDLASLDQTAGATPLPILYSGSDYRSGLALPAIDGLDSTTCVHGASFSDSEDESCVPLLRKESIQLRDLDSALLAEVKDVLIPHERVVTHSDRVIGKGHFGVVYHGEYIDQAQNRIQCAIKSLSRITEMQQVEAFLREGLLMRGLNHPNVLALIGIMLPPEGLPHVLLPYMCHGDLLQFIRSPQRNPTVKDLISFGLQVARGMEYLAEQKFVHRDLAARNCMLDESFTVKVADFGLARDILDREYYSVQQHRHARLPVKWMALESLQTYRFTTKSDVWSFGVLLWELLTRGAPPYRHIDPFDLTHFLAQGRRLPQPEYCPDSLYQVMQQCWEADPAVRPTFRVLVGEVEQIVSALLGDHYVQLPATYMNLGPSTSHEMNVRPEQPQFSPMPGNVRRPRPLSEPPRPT
Conditions: not given
Consider B1, for which the “IC50 (M) inhibition of ERK phosphorylation induced by 1 nM MSP through RON on T-47D cells; purified nanobody, HTRF phospho-ERK” value (shortened to “IC50 (M) inhibition”) was determined as 5.2e-09 M and the “maximum inhibition (efficacy) of MSP-induced ERK phosphorylation in T-47D cells” value (shortened to “maximum inhibition (efficacy)”) stood at 99%.
Turning to B2, the “IC50 (M) inhibition” value is 1.2e-07 M and the “maximum inhibition (efficacy)” value was 98%.
As for B3, the “IC50 (M) inhibition” value came to 1.3e-08 M and the “maximum inhibition (efficacy)” value came out at 100%.
With B4, the “IC50 (M) inhibition” value is 8.2e-08 M and the “maximum inhibition (efficacy)” value was 98%.
For B5, the “IC50 (M) inhibition” value is 3e-07 M and the “maximum inhibition (efficacy)” value was found to be 92%.
Turning to B6, the “IC50 (M) inhibition” value worked out at 6e-09 M and the “maximum inhibition (efficacy)” value worked out at 100%.

The next assay has as its target T2, Recombinant extracellular domain of human RON (rhRON) (human, UniProt Q04912).
T2 construct: recepteur d'origine nantais (RON) receptor tyrosine kinase, human, recombinant extracellular domain; also called recepteur d'origine nantais; source: bought: R&D Systems
The experiment in a line: ELISA; ligand competition: rhRON (1 µg/ml) immobilised directly; dilution series of purified nanobodies starting at 1 µM added together with 2 nM biotinylated MSP; MSP detected by extravidin peroxidase. To be noted: both partners purified.
Regarding B1, the half-inhibitory concentration (IC50) stood at 12 nM and the “maximum inhibition of MSP binding” value was determined as 98%.
B2: the half-inhibitory concentration (IC50) worked out at 22 nM and the “maximum inhibition of MSP binding” value amounted to 98%.
Regarding B3, the IC50 came to 7 nM and the “maximum inhibition of MSP binding” value turned out to be 96%.
On to B4, for which the half-maximal inhibitory concentration (IC50) came to 240 nM and the “maximum inhibition of MSP binding” value was 92%.
Turning to B5, the 50% inhibitory concentration (IC50) came to 250 nM and the “maximum inhibition of MSP binding” value came to 90%.
As to B6, the IC50 was found to be 9.7 nM and the “maximum inhibition of MSP binding” value worked out at 98%.

The next assay addresses T1, RON endogenously expressed on T-47D …. The experiment in a line: flow cytometry on cells; dilution series of purified nanobodies starting at 500 nM on T-47D cells endogenously expressing RON; anti-FLAG then anti-mouse APC. To be noted: one partner purified. A general note: Flow cytometry measures light scatter and fluorescence of single cells or particles in a stream.
In turn, B1 showed an EC50 of 0.2 nM.
Molecule B2 had an EC50 of 200 nM.
Turning to B3, the EC50 worked out at 0.12 nM. This EC50 is about 1700-fold lower than that of the molecule before.
In turn, B4 registered a concentration for a half-maximal effect (EC50) of 34 nM.
Regarding B5, the EC50 was over 1000 nM.
In turn, B6 gave a concentration giving a half-maximal response (EC50) of 0.053 nM.

The target of a further assay is T2, Recombinant extracellular domain of …. The experiment in a line: SPR; ProteOn; rhRON immobilised on GLC chip; 1/10 diluted crude periplasmic extracts injected 2 min at 45 µl/min; Langmuir model, off-rate only. To be noted: one partner purified. A general note: SPR reads the build-up and loss of mass on a sensor chip optically.
In the case of B1, the koff was found to be 0.00064 s⁻¹.
For the molecule B2, the koff was determined as 0.0037 s⁻¹.
Take B3: the koff amounted to 0.0028 s⁻¹.
With B4, the dissociation rate constant (koff) was 0.00097 s⁻¹.
Take B5: the off-rate (koff) is 0.0069 s⁻¹.
In the case of B6, the koff amounted to 0.00046 s⁻¹.

The target in a further assay is T3, full-length human RON expressed on HEK293T cells (HEK293T-hRON) (Homo sapiens, UniProt Q04912).
T3 construct: also called cell-expressed RON; source: HEK293T, transiently transfected (pcDNA3.1), on cells
T3 sequence (Q04912 25-1400): as above
The experiment in a line: flow cytometry on cells; 1/10 diluted crude periplasmic extracts on HEK293T-hRON and HEK293T cells; anti-FLAG then anti-mouse APC; positive if normalised ratio ≥2. To be noted: partners not purified.
As to B7, the binding result is listed as “no binding”.
For the molecule B8, the binding result is recorded as “no binding”.
In the case of B9, the binding result is listed as “no binding”.

The target of a further assay is T2, Recombinant extracellular domain of …. The experiment in a line: ELISA; rhRON (1 µg/ml) immobilised directly on 384-well plates; crude periplasmic extracts of nanobodies; detection by anti-FLAG HRP; positive if OD450 ratio to a negative control nanobody ≥2. To be noted: one partner purified. (In general: An ELISA detects its analyte on a solid surface through an enzyme-linked reagent.)
With B7, the binding result is “no binding”.
For the molecule B8, the binding result is “no binding”.
Turning to B9, the binding result is reported as “no binding”.
As to B10, the binding result is “binds”.

A word on the IC50: it is the concentration that gives 50% inhibition. A word on the EC50: it is the concentration needed to bring the measured effect to its halfway point. The term koff denotes a measure of how fast the partners let go of each other.
